Measurements reported in the Human Domainome abundance scans (Beltran et al. 2025).
± gives the uncertainty stated by the source.

B1: Zinc finger MYM-type protein 3, residues 589 to 668; numbered along this chain, Q14202 (parent)
chain: LSCHYCHSLFSGKPEVLDWQDQVFQFCCRDCCEDFKRLRGVVSQCEHCRQEKLLHEKLRFSGVEKSFCSEGCVLLYKQDF

Variants of: B1
Experiment: abundance fitness (aPCA) (normalised: wild type 0, dead -1); higher = more abundant; growth selection in yeast, the domain comes from the species named
Details: Homo sapiens

Question: For LSCHYCHSLFSGKPEVLDWQDQVFQFGCRDCCEDFKRLRGVVSQCEHCRQEKLLHEKLRFSGVEKSFCSEGCVLLYKQDF [C27G], which abundance fitness is on record?
Answer: Its abundance fitness is -0.572 ± 0.048.

Question: For LSCHYCHSLFSGKPEVLDWQDQVFQFHCRDCCEDFKRLRGVVSQCEHCRQEKLLHEKLRFSGVEKSFCSEGCVLLYKQDF [C27H], which abundance fitness is on record?
Answer: Its abundance fitness is -0.517 ± 0.11.

Question: With LSCHYCHSLFSGKPEVLDWQDQVFQFKCRDCCEDFKRLRGVVSQCEHCRQEKLLHEKLRFSGVEKSFCSEGCVLLYKQDF [C27K] as the variant, how does the abundance fitness read?
Answer: The abundance fitness was -0.882 ± 0.096.

Question: For LSCHYCHSLFSGKPEVLDWQDQVFQFICRDCCEDFKRLRGVVSQCEHCRQEKLLHEKLRFSGVEKSFCSEGCVLLYKQDF [C27I], which abundance fitness is on record?
Answer: The abundance fitness was -0.752 ± 0.21.

Question: Which abundance fitness does the source give for LSCHYCHSLFSGKPEVLDWQDQVFQFACRDCCEDFKRLRGVVSQCEHCRQEKLLHEKLRFSGVEKSFCSEGCVLLYKQDF [C27A] here?
Answer: Its abundance fitness is -0.673 ± 0.055.

Question: For LSCHYCHSLFSGKPEVLDWQDQVFQFECRDCCEDFKRLRGVVSQCEHCRQEKLLHEKLRFSGVEKSFCSEGCVLLYKQDF [C27E], which abundance fitness is on record?
Answer: The abundance fitness was -0.721 ± 0.062.

Question: Which abundance fitness does the source give for LSCHYCHSLFSGKPEVLDWQDQVFQFFCRDCCEDFKRLRGVVSQCEHCRQEKLLHEKLRFSGVEKSFCSEGCVLLYKQDF [C27F] here?
Answer: Its abundance fitness is -0.607 ± 0.17.

Question: Which abundance fitness does the source give for LSCHYCHSLFSGKPEVLDWQDQVFQFDCRDCCEDFKRLRGVVSQCEHCRQEKLLHEKLRFSGVEKSFCSEGCVLLYKQDF [C27D] here?
Answer: The abundance fitness was -0.352 ± 0.078.

Question: Which abundance fitness does the source give for LSCHYCHSLFSGKPEVLDWQDQVFQFLCRDCCEDFKRLRGVVSQCEHCRQEKLLHEKLRFSGVEKSFCSEGCVLLYKQDF [C27L] here?
Answer: Its abundance fitness is -0.89 ± 0.08.

Question: For LSCHYCHSLFSGKPEVLDWQDQVFQNCCRDCCEDFKRLRGVVSQCEHCRQEKLLHEKLRFSGVEKSFCSEGCVLLYKQDF [F26N], which abundance fitness is on record?
Answer: Its abundance fitness is -0.391 ± 0.1.

Question: Which abundance fitness does the source give for LSCHYCHSLFSGKPEVLDWQDQVFQWCCRDCCEDFKRLRGVVSQCEHCRQEKLLHEKLRFSGVEKSFCSEGCVLLYKQDF [F26W] here?
Answer: Its abundance fitness is -0.522 ± 0.075.

Question: With LSCHYCHSLFSGKPEVLDWQDQVFQMCCRDCCEDFKRLRGVVSQCEHCRQEKLLHEKLRFSGVEKSFCSEGCVLLYKQDF [F26M] as the variant, how does the abundance fitness read?
Answer: Its abundance fitness is 0.134 ± 0.051.

Question: With LSCHYCHSLFSGKPEVLDWQDQVFQRCCRDCCEDFKRLRGVVSQCEHCRQEKLLHEKLRFSGVEKSFCSEGCVLLYKQDF [F26R] as the variant, how does the abundance fitness read?
Answer: The abundance fitness was -0.603 ± 0.049.

Question: For LSCHYCHSLFSGKPEVLDWQDQVFQTCCRDCCEDFKRLRGVVSQCEHCRQEKLLHEKLRFSGVEKSFCSEGCVLLYKQDF [F26T], which abundance fitness is on record?
Answer: The abundance fitness was -0.489 ± 0.062.

Question: With LSCHYCHSLFSGKPEVLDWQDQVFQPCCRDCCEDFKRLRGVVSQCEHCRQEKLLHEKLRFSGVEKSFCSEGCVLLYKQDF [F26P] as the variant, how does the abundance fitness read?
Answer: Its abundance fitness is -0.664 ± 0.071.

Question: With LSCHYCHSLFSGKPEVLDWQDQVFQGCCRDCCEDFKRLRGVVSQCEHCRQEKLLHEKLRFSGVEKSFCSEGCVLLYKQDF [F26G] as the variant, how does the abundance fitness read?
Answer: Its abundance fitness is -0.603 ± 0.058.

Question: Which abundance fitness does the source give for LSCHYCHSLFSGKPEVLDWQDQVFQDCCRDCCEDFKRLRGVVSQCEHCRQEKLLHEKLRFSGVEKSFCSEGCVLLYKQDF [F26D] here?
Answer: Its abundance fitness is -0.657 ± 0.11.

Question: Which abundance fitness does the source give for LSCHYCHSLFSGKPEVLDWQDQVFQCCCRDCCEDFKRLRGVVSQCEHCRQEKLLHEKLRFSGVEKSFCSEGCVLLYKQDF [F26C] here?
Answer: Its abundance fitness is -0.444 ± 0.078.

Question: With LSCHYCHSLFSGKPEVLDWQDQVFQYCCRDCCEDFKRLRGVVSQCEHCRQEKLLHEKLRFSGVEKSFCSEGCVLLYKQDF [F26Y] as the variant, how does the abundance fitness read?
Answer: Its abundance fitness is -0.409 ± 0.1.

Question: With LSCHYCHSLFSGKPEVLDWQDQVFQACCRDCCEDFKRLRGVVSQCEHCRQEKLLHEKLRFSGVEKSFCSEGCVLLYKQDF [F26A] as the variant, how does the abundance fitness read?
Answer: The abundance fitness was -0.49 ± 0.053.

Question: For LSCHYCHSLFSGKPEVLDWQDQVFQKCCRDCCEDFKRLRGVVSQCEHCRQEKLLHEKLRFSGVEKSFCSEGCVLLYKQDF [F26K], which abundance fitness is on record?
Answer: The abundance fitness was -0.524 ± 0.075.

Question: With LSCHYCHSLFSGKPEVLDWQDQVFQVCCRDCCEDFKRLRGVVSQCEHCRQEKLLHEKLRFSGVEKSFCSEGCVLLYKQDF [F26V] as the variant, how does the abundance fitness read?
Answer: The abundance fitness was -0.515 ± 0.048.

Question: Which abundance fitness does the source give for LSCHYCHSLFSGKPEVLDWQDQVFQHCCRDCCEDFKRLRGVVSQCEHCRQEKLLHEKLRFSGVEKSFCSEGCVLLYKQDF [F26H] here?
Answer: Its abundance fitness is -0.666 ± 0.15.

Question: Which abundance fitness does the source give for LSCHYCHSLFSGKPEVLDWQDQVFQECCRDCCEDFKRLRGVVSQCEHCRQEKLLHEKLRFSGVEKSFCSEGCVLLYKQDF [F26E] here?
Answer: Its abundance fitness is -0.506 ± 0.057.

Question: For LSCHYCHSLFSGKPEVLDWQDQVFQICCRDCCEDFKRLRGVVSQCEHCRQEKLLHEKLRFSGVEKSFCSEGCVLLYKQDF [F26I], which abundance fitness is on record?
Answer: Its abundance fitness is -0.731 ± 0.14.

Question: Which abundance fitness does the source give for LSCHYCHSLFSGKPEVLDWQDQVFQQCCRDCCEDFKRLRGVVSQCEHCRQEKLLHEKLRFSGVEKSFCSEGCVLLYKQDF [F26Q] here?
Answer: Its abundance fitness is -0.482 ± 0.069.

Question: With LSCHYCHSLFSGKPEVLDWQDQVFIFCCRDCCEDFKRLRGVVSQCEHCRQEKLLHEKLRFSGVEKSFCSEGCVLLYKQDF [Q25I] as the variant, how does the abundance fitness read?
Answer: The abundance fitness was -0.084 ± 0.067.

Question: Which abundance fitness does the source give for LSCHYCHSLFSGKPEVLDWQDQVFSFCCRDCCEDFKRLRGVVSQCEHCRQEKLLHEKLRFSGVEKSFCSEGCVLLYKQDF [Q25S] here?
Answer: The abundance fitness was 0.016 ± 0.044.

Question: With LSCHYCHSLFSGKPEVLDWQDQVFMFCCRDCCEDFKRLRGVVSQCEHCRQEKLLHEKLRFSGVEKSFCSEGCVLLYKQDF [Q25M] as the variant, how does the abundance fitness read?
Answer: Its abundance fitness is 0.198 ± 0.059.

Question: Which abundance fitness does the source give for LSCHYCHSLFSGKPEVLDWQDQVFKFCCRDCCEDFKRLRGVVSQCEHCRQEKLLHEKLRFSGVEKSFCSEGCVLLYKQDF [Q25K] here?
Answer: The abundance fitness was 0.113 ± 0.05.

Question: Which abundance fitness does the source give for LSCHYCHSLFSGKPEVLDWQDQVFVFCCRDCCEDFKRLRGVVSQCEHCRQEKLLHEKLRFSGVEKSFCSEGCVLLYKQDF [Q25V] here?
Answer: Its abundance fitness is 0.032 ± 0.041.

Question: Which abundance fitness does the source give for LSCHYCHSLFSGKPEVLDWQDQVFYFCCRDCCEDFKRLRGVVSQCEHCRQEKLLHEKLRFSGVEKSFCSEGCVLLYKQDF [Q25Y] here?
Answer: The abundance fitness was 0.025 ± 0.059.

Question: With LSCHYCHSLFSGKPEVLDWQDQVFWFCCRDCCEDFKRLRGVVSQCEHCRQEKLLHEKLRFSGVEKSFCSEGCVLLYKQDF [Q25W] as the variant, how does the abundance fitness read?
Answer: Its abundance fitness is 0.033 ± 0.046.

Question: With LSCHYCHSLFSGKPEVLDWQDQVFLFCCRDCCEDFKRLRGVVSQCEHCRQEKLLHEKLRFSGVEKSFCSEGCVLLYKQDF [Q25L] as the variant, how does the abundance fitness read?
Answer: Its abundance fitness is -0.163 ± 0.046.

Question: With LSCHYCHSLFSGKPEVLDWQDQVFHFCCRDCCEDFKRLRGVVSQCEHCRQEKLLHEKLRFSGVEKSFCSEGCVLLYKQDF [Q25H] as the variant, how does the abundance fitness read?
Answer: The abundance fitness was 0.122 ± 0.064.
